Experimental data: the supplement of paper PMC9170038

Tested on: MS2 coat protein
Assay: apparent KD of MS2 coat protein; designed switch direction (-1 OFF switch, 1 ON switch): -1; higher = weaker reporter binding
Outline: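 For each design, the apparent KD is the median over clusters of curves fitted to normalised cluster fluorescence. Clusters held RNA switches with common flanks, transcribed on Illumina chips by stalled E. coli RNA polymerase. These were titrated with SNAP-549-labelled MS2 coat protein, doubling from 0.7 or 1.5 nM to 3 µM, without input, with 200 uM small-molecule ligand, or with an oligonucleotide input.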

[1] = input ligand: microRNA oligo, concentration not stated
[2] = Eterna round: R95, input ligand: microRNA oligo, concentration not stated
[3] = Eterna round: R95, input ligand: FMN 200 uM
[4] = Eterna round: R95, input ligand: none

Sequence | apparent KD of MS2 coat protein [1] | apparent KD of MS2 coat protein (input ligand: FMN 200 uM) | apparent KD of MS2 coat protein (input ligand: none) | apparent KD of MS2 coat protein [2] | apparent KD of MS2 coat protein [3] | apparent KD of MS2 coat protein [4]
UUUGAAUAGGUAGGAUAUACAUACAUUCCUACAUUACUAACAUGAGGAUCACCCAUGUAUACAUUGUAGAAGGACCAGAUUGAU [JR_ExcNG2_Sub039] (Eterna round: R96, puzzle: Exclusion NG 2) | 18.8 nM | – | – | – | – | –
UGAUCUAGCGGAGGAUAUACAUGAGGAUCACCCAUGUAUAGGCCAUCUGGUGACAGGUGGAACAUGUAGAAGGCCGCUAGAUCU [JL ENG2 3.81] (Eterna round: R96, puzzle: Exclusion NG 2) | 9.54 nM | 35.9 nM | 13.9 nM | – | – | –
GGAAUACAUGAGGAUCACCCAUGUAAGGAUAUGCUGAUUAAUUAAUUAUAAUUAUGCAGCAGAAGGUACAAAGG [Mat - Mod of my Eli Mod D50] (puzzle: Exclusion 1) | – | – | – | 87 nM | – | –
UUUUAGAGAGGAUAUAUUAUGUGAAACAUGAGGAUCACCCAUGUAAUAUGAUGGAUGUAAAUAGAAGGCUCAUUUA [JL-ex5-3.06] (puzzle: Exclusion 5) | – | – | – | 48.3 nM | 34.6 nM | 58 nM
GAGCUAUGAGGAUAUGCAUAUAUACGGAUUCGUGUGGUACUACAUGAGGAUCACCCAUGUAGAAGGCGUGGCUG [JL-ex2-2.04 mat747 mod] (puzzle: Exclusion 2) | – | – | – | 16.2 nM | – | –
ACAUGAGGAUCACCCAUGUUUGGCUGGUUUUCUCCGGCUGUCGAGGAUAUAGUCCGGUAUCCGCGCUAGAAGGUGAGGGUUGGC [Aenatbe mod 4] (Eterna round: R96, puzzle: Exclusion NG 3) | 14.2 nM | 22.5 nM | 22.8 nM | – | – | –
AAGUACCGUCACGAUAGUGAUGGUACAACAAGUAGUGAAACAUGAGGAUCACCCAUGUCCUCAUUUGCUCGUCUUAU [Sensor 3 - 87] (puzzle: Sensor v3, turn-off variant 2) | – | – | – | 365 nM | 1030 nM | 806 nM
CAGUACAGAGGAUAUACAUGAGGAUCACCCAUGUGUAGCAGCUAGGAGACUAGCGCAUGUAGAAGGCUGUACUG [jl-ex3-4.31 salish99 mod] (Eterna round: R97, puzzle: Exclusion 3) | – | 129 nM | 21.3 nM | – | – | –
GCCUUAUCCGUCAGGAUAUACAGCCGCUCCCUGUUGUAGAAGGGACAUGAGGAUCACCCAUGUACGUACCACUG [alecazam7] (Eterna round: R97, puzzle: Brourd's mod of Exclusion 4) | – | 28.7 nM | 22.6 nM | – | – | –
ACCCAACAUGAGGAUCACCCAUGUCAGGAUAUCCUCGGGAAACCAAAAGAGGAGCCGAGGAGAAGGGACAGAGG [ChP 04-04-2015 #5] (puzzle: Exclusion 1) | – | – | – | 233 nM | 124 nM | 227 nM
GGUAGGUGUGACUUGGGUGACAUGAGGAUCACCCAUGUCACAAGCUUGUUGCUCGCCUUGUAAUUAACCCAUGUCAC [LRO Sensor-off var1-29 mod of Stov1-13-A1 by Brourd] (Eterna round: R97, puzzle: Sensor, turn-off variant 1) | – | 21.5 nM | 21.5 nM | – | – | –
AUAUAGUCAGGAUAUCGAAGUGUGUGUUGGUUUGUAAUUUACGAGAAGGGACAUGAGGAUCACCCAUGUAGGAA [JR_Exclusion4)Sub002] (Eterna round: R96, puzzle: Exclusion 4) | 33.8 nM | 49.3 nM | 44.1 nM | – | – | –
CUCUUGAGUCAGGAUAUCGAGAGGCUAAUAAAACGAGAAGGGACUACAUGAGGAUCACCCAUGUGAUCGCAAAA [Geonge] (Eterna round: R97, puzzle: Exclusion 6) | – | 433 nM | 61.7 nM | – | – | –
ACAAGCUUUUAGAUUUUCAACAUGAGGAUCACCCAUGUUCGUCUUGUGCUAGUGCGAGUGCGGUGUACUCGUAUUAG [JL TOV1 3.82 sellena mod] (Eterna round: R97, puzzle: Sensor, turn-off variant 1) | – | 18.5 nM | 18.4 nM | – | – | –
UUAAUUAAUUAUAUAAGAUCACAUGAGGAUCACCCAUGUAUAUAGGAUAUCAGCUCGUGUAGAGCUGAGAAGGAUAUACAAUAU [ExNG3/3-B3] (Eterna round: R96, puzzle: Exclusion NG 3) | 210 nM | 241 nM | 175 nM | – | – | –
UCGUCCUGUGUAGGAUAUCGCGGGCUUUGCCCGCGAGAAGGACAUGAGGAUCACCCAUGUGGGCCGCGCCGCGGGCGCGGCCCA [new design] (Eterna round: R96, puzzle: Exclusion NG 1) | 4700 nM | 1360 nM | 230 nM | – | – | –
CCUCAACAGUAGGAUAUCAUCAAACUAUUGUGAUGAGAAGGACUGACAUGAGGAUCACCCAUGUUAACGUGAUG [Exclusion 6 - 6:c] (puzzle: Exclusion 6) | – | – | – | 21 nM | 70.8 nM | 20.4 nM

Sequence | apparent KD of MS2 coat protein [1] | apparent KD of MS2 coat protein (input ligand: FMN 200 uM) | apparent KD of MS2 coat protein (input ligand: none) | apparent KD of MS2 coat protein [2] | apparent KD of MS2 coat protein [3] | apparent KD of MS2 coat protein [4]
UUAUUAUAUGUAGGAUAUGCGUAUUAUUAUUAUGCAGAAGGACAUGAGGAUCACCCAUGUAUAUUAUUAUUAUAUAUUAUAUAU [Title] (Eterna round: R96, puzzle: Exclusion NG 1) | 23.5 nM | – | – | – | – | –
CGUGACUCAGGAUAUCUAUAAUAUCACAUGAGGAUCACCCAUGUCCAGCGAAAGCUGGAGGGAGAAGGGAGUCACG [Fiskers Ex 5 - 35] (puzzle: Exclusion 5) | – | – | – | 164 nM | 32.8 nM | 146 nM
GGAAAGCAAGGAUAUACAAGUAAACGACGGAAAGUAGAGAGACAUGAGGAUCACCCAUGUAGAAGGUGCGAGAG [JR_Exclu2_Sub035] (puzzle: Exclusion 2) | – | – | – | 26.9 nM | 19 nM | 20.1 nM
UGAAAGGUAGGAUAUACGAAGAAAAAGGGUAGAAUAAUAACACAUGAGGAUCACCCAUGUAGAAGGACCAAAGU [Mat - Exclusion 2 - Mod of my Tesla design - D10] (puzzle: Exclusion 2) | – | – | – | 26.2 nM | 51.7 nM | 24.6 nM
UGAGCUUGAGGAUAUACAAGGCGACCGUGAGGUCGAGGGUUACAUGAGGAUCACCCAUGUAGAAGGCAAGUUCU [Mat - Exclusion 2 - JL Mod - D10] (Eterna round: R97, puzzle: Exclusion 2) | – | 460 nM | 54.3 nM | – | – | –
GAGGAACAUGAGGAUCACCCAUGUAAGGAUAUGCAAAGAGAGGUAGUAGAAGGAGAAGGCAGAAGGUACAAGGA [JR_Exclu1_Sub074] (puzzle: Exclusion 1) | – | – | – | 36.1 nM | 47.7 nM | 50 nM
UAUUAGCAAGCGAGAUCCCACAUGAGGAUCACCCAUGUGCUCGUCUUAUAAAGUACUGUGACGAAAGUCACGGUACU [Mat - Sensor, turn-off var - Eli Mod - D7] (Eterna round: R97, puzzle: Sensor, turn-off variant 1) | – | 15.2 nM | 14.6 nM | – | – | –
GGAUAAAAGACAGGAUAUGAGGAGAGAGAGAGAUCAGAAGGGUCACAUGAGGAUCACCCAUGUGAGUUCUCGAUAAGAAACACG [Prohibition 54 - Jieux - Exclusion NG 1] (Eterna round: R96, puzzle: Exclusion NG 1) | 12.7 nM | 15.5 nM | 18.4 nM | – | – | –
CAAAACACUGGAGGAUAUUGGAAAGGAAGUGUACAAGAAGGCCAGCUCUAACAUGAGGAUCACCCAUGUCCAGGGCAUGGGCAA [PowerStrip EXNG 1.12] (Eterna round: R96, puzzle: Exclusion NG 1) | 19.9 nM | 31.8 nM | 11.7 nM | – | – | –
CGUGACUGAGGAUAUCUAUAAUAUCACAUGAGGAUCACCCAUGUCCAGCGAAAGCUGGAAGGAGAAGGCAGUCACG [Fiskers Ex 5 - 34] (puzzle: Exclusion 5) | – | – | – | 21.4 nM | 39.3 nM | 25.1 nM
UUUUAACAUGAGGAUCACCCAUGUGAGGAUAUGGUAUUUUUUUUUUUUUUUUUUUUUUCCAGAAGGCACAUUUU [My solution] (puzzle: Exclusion 1) | – | – | – | 35.1 nM | 38.4 nM | 74.9 nM
AAACGGCAGGGAGGAUAUGCCUACCUGGGUCGUCUUCAAACAUGAGGAUCACCCAUGUAGUCGACGCAGAAGGCCCUCAAAGCC [Ontiis] (Eterna round: R96, puzzle: Exclusion NG 2) | 8.22 nM | 38.7 nM | 12.7 nM | – | – | –
UGCAGACGAGGAUAUAGAUUUAGAUACAUGAGGAUCACCCAUGUAUACAUGUAUUUAGAUUUAGAAGGCGUCUGCA [E5/14-A2] (Eterna round: R97, puzzle: Exclusion 5) | – | 422 nM | 886 nM | – | – | –
CCUCACAGAGGAUAUACGUCCACUGAACCCAUGAGGUUGCCACAUGAGGAUCACCCAUGUAGAAGGCUGUGCUG [Mageanma] (puzzle: Exclusion 2) | – | – | – | 18.9 nM | – | –
UAGUGGUUACGUUGGAGUUGUAUGAGCGGAGGCUCUGUGACAUGAGGAUCACCCAUGUAGCUUUUUGCUCGUCUUAA [JR_SV3TOV2_Sub039] (puzzle: Sensor v3, turn-off variant 2) | – | – | – | 41.5 nM | 22.5 nM | 22.6 nM
UUUAUGUAAGGAUAUAUGAGUCACGGAAAUAAACCGUGAAGAUAGAAGGUACAUGAGGAUCACCCAUGUAAGGC [Mod of Anonveat 8 - Jieux - Exclusion 4] (Eterna round: R97, puzzle: Exclusion 4) | – | 40.1 nM | 22.9 nM | – | – | –
